# Assay results from article PMC7504508 (International Journal of Molecular Sciences, 2020).
# Target: calmodulin (UniProt P0DP23 1-149)
# Experiment: SPR; GST-Sumo-Cx35 fusion proteins captured by immobilised anti-GST antibodies on a CM5 chip (Biacore 2000); calmodulin as analyte, 3 nM to 30 µM; GST-Sumo reference flowcell subtracted; 1 mM free Ca2+, 0.5 mM free Mg2+, 140 mM KCl, 10 mM MOPS pH 7.2, 0.05% Tween 20; first order ligand binding model
# Details: both partners purified
binder,measurement,value
GST-Sumo fusion protein of the perch Connexin 35 intracellular loop (amino acids 101-192) (domain or fragment) SAKQKERRYSTVYLTLDKDQDSLKRDESKKIKNTIVNGVLQNTENSTKEAEPDCLEVKEIPNSAMRTTKSKMRRQEGISRFYIIQVVFRNAL,Kd,6.29 µM
